Measurements published in patent US20160296633A1.
Each block holds one substance with its values, some of them ahead of it.

Key:
[1] = biological target: human trophoblast cell-surface antigen (Trop-2) (human) (UniProt P09758); assay: FACS on PC-3 cells
[2] = biological target: human trophoblast cell-surface antigen (Trop-2) (human) (UniProt P09758); assay: FACS on BxPC-3 cells
[3] = biological target: human trophoblast cell-surface antigen (Trop-2) (human) (UniProt P09758); assay: FACS on Calu-3 cells
[4] = biological target: human trophoblast cell-surface antigen (Trop-2) (human) (UniProt P09758); assay: FACS on Capan-1 cells
[5] = biological target: human trophoblast cell-surface antigen (Trop-2) (human) (UniProt P09758); assay: FACS on COLO 205 cells
[6] = biological target: human trophoblast cell-surface antigen (Trop-2) (human) (UniProt P09758); assay: FACS on SK-MES-1 cells
[7] = biological target: human trophoblast cell-surface antigen (Trop-2) (human) (UniProt P09758); assay: cell-based or functional assay
[8] = biological target: human trophoblast cell-surface antigen (Trop-2) (human) (UniProt P09758); assay: FACS on PC-3 cells; background 5.5
[9] = biological target: human trophoblast cell-surface antigen (Trop-2) (human) (UniProt P09758); assay: FACS on BxPC-3 cells; background 3.1
[10] = biological target: human trophoblast cell-surface antigen (Trop-2) (human) (UniProt P09758); assay: FACS on Calu-3 cells; background 4.7
[11] = biological target: human trophoblast cell-surface antigen (Trop-2) (human) (UniProt P09758); assay: FACS on Capan-1 cells; background 5.0
[12] = biological target: human trophoblast cell-surface antigen (Trop-2) (human) (UniProt P09758); assay: FACS on COLO 205 cells; background 4.5
[13] = biological target: human trophoblast cell-surface antigen (Trop-2) (human) (UniProt P09758); assay: FACS on SK-MES-1 cells; background 3.5
[14] = biological target: human trophoblast cell-surface antigen (Trop-2) (human) (UniProt P09758); assay: flow cytometry, surface, Capan-1 cells
[15] = biological target: human trophoblast cell-surface antigen (Trop-2) (human) (UniProt P09758); assay: flow cytometry, surface, NCI-N87 cells
[16] = biological target: CD74 (invariant chain, Ii) (human) (UniProt P04233); assay: flow cytometry, permeabilized Raji cells
Sequence of CD74 (invariant chain, Ii) (human) (P04233 whole entry, change not shown): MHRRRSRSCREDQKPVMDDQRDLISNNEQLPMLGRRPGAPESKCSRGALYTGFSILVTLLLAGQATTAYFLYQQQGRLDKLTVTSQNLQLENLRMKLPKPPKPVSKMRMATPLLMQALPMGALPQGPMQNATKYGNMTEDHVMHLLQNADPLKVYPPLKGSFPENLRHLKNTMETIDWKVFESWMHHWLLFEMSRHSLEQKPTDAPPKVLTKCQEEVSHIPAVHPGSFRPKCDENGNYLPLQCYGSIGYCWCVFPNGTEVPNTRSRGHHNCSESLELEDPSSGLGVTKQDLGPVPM

[17] = biological target: CD74 (invariant chain, Ii) (human) (UniProt P04233); assay: flow cytometry, surface only, Raji cells
[18] = biological target: CD74 (invariant chain, Ii) (human) (UniProt P04233); assay: flow cytometry, permeabilized A-375 cells
[19] = biological target: CD74 (invariant chain, Ii) (human) (UniProt P04233); assay: flow cytometry, permeabilized HuH-7 cells
[20] = biological target: CD74 (invariant chain, Ii) (human) (UniProt P04233); assay: flow cytometry, surface only, A-375 cells
[21] = biological target: CD74 (invariant chain, Ii) (human) (UniProt P04233); assay: flow cytometry, surface only, HuH-7 cells
[22] = biological target: CD74 (invariant chain, Ii) (human) (UniProt P04233); assay: flow cytometry, permeabilized Hep-G2 cells
[23] = biological target: CD74 (invariant chain, Ii) (human) (UniProt P04233); assay: flow cytometry, permeabilized Hs746T cells
[24] = biological target: CD74 (invariant chain, Ii) (human) (UniProt P04233); assay: flow cytometry, surface only, Hep-G2 cells
[25] = biological target: CD74 (invariant chain, Ii) (human) (UniProt P04233); assay: flow cytometry, surface only, Hs746T cells
[26] = biological target: CD74 (invariant chain, Ii) (human) (UniProt P04233); assay: flow cytometry, permeabilized Capan-1 cells
[27] = biological target: CD74 (invariant chain, Ii) (human) (UniProt P04233); assay: flow cytometry, permeabilized NCI-N87 cells
[28] = biological target: CD74 (invariant chain, Ii) (human) (UniProt P04233); assay: flow cytometry, surface only, Capan-1 cells
[29] = biological target: CD74 (invariant chain, Ii) (human) (UniProt P04233); assay: flow cytometry, surface only, NCI-N87 cells

Sequence of human trophoblast cell-surface antigen (Trop-2) (human) (P09758 27-323): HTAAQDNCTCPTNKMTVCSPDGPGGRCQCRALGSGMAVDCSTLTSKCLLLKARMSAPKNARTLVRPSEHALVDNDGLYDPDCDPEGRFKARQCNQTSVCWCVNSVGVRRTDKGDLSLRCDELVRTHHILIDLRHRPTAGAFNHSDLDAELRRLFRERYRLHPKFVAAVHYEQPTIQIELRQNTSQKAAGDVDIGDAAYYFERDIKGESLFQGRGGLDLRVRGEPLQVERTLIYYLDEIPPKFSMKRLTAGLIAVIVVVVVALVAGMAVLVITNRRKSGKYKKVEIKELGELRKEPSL

percent positive [1]: 73.6% | percent positive [2]: 98.3% | percent positive [3]: 99.6% | percent positive [4]: 94.2% | percent positive [5]: 99.5% | percent positive [6]: 91.2% | ADCC, specific lysis of BxPC-3 target cells by PBMCs (effector to target 100:1), antibody at 33.3 nM [7]: 8.5% | median fluorescence [8]: 46.2 | median fluorescence [9]: 26.4 | median fluorescence [10]: 282 | median fluorescence [11]: 100 | median fluorescence [12]: 142 | median fluorescence [13]: 44 | MFI (surface) [14]: 237 | MFI (surface) [15]: 795
Substance: humanized RS7 IgG (hRS7), anti-Trop-2 (antibody)

MFI ratio hLL1:bkgd (surface and cytoplasmic) [16]: 28.6 | MFI ratio hLL1:bkgd (surface) [17]: 19.6 | MFI ratio hLL1:bkgd (surface and cytoplasmic) [18]: 30.8 | MFI ratio hLL1:bkgd (surface and cytoplasmic) [19]: 28.5 | MFI ratio hLL1:bkgd (surface) [20]: 5.3 | MFI ratio hLL1:bkgd (surface) [21]: 1.6 | MFI ratio hLL1:bkgd (surface and cytoplasmic) [22]: 31.2 | MFI ratio hLL1:bkgd (surface and cytoplasmic) [23]: 28.8 | MFI ratio hLL1:bkgd (surface) [24]: 1.5 | MFI ratio hLL1:bkgd (surface) [25]: 2.1 | MFI ratio hLL1:bkgd (surface and cytoplasmic) [26]: 49.6 | MFI ratio hLL1:bkgd (surface and cytoplasmic) [27]: 36.7 | MFI ratio hLL1:bkgd (surface) [28]: 1.8 | MFI ratio hLL1:bkgd (surface) [29]: 1.3
Substance: milatuzumab (hLL1), humanized anti-CD74 IgG1 (antibody)
